Laboratory results taken from patent US20170260258A1.

Assays:
[1] = molecular target: GST-pre-S1 (1st to 56th amino acids) protein (hepatitis B virus) [GST: P08515]; experiment: BLI (Octet Red), antibody captured on anti-human Fc tip, GST-pre-S1 in solution
[2] = molecular target: GST-pre-S1 (1st to 56th amino acids) protein (hepatitis B virus) [GST: P08515]; experiment: competitive ELISA and BLI (Octet Red)

Sequence of GST-pre-S1 (1st to 56th amino acids) protein (hepatitis B virus) [GST: P08515] (P08515 whole entry): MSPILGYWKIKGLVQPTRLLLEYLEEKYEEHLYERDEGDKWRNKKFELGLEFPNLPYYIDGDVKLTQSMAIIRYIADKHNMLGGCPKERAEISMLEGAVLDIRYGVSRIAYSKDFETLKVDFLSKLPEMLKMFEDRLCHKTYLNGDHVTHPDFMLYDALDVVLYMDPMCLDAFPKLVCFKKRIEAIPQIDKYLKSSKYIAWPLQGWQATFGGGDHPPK

B1: humanized antibody HzKR127-3.1 (antibody, V domains shown)
VH: QVQLQQSGAEVKKPGASVKVSCKASGYTFTSSWMNWVRQAPGQGLEWMGRIYPGDGDTNYAQKFQGRVTMTADKSTSTVYMELSSLRSEDTAVYYCAREYAEAYWGQGTLVTVSS
VL: DIVMTQTPLSLSVTPGQPASISCKSSQSLLYSNGKTYLNWLLQKPGQPPQRLIYLVSNRDSGVPDRFSGSGSGTDFTLKISRVEAEDVGVYYCVQGTHFPQTFGGGTKVEIKR
[1]
  Kd: 0.813 nM
  koff: 4.13e-05 s⁻¹
  kon: 50800 M⁻¹ s⁻¹
[2]
  fold higher affinity than HzKR127-3: 4.9 fold
